Results taken from US20230406925A1 (PHYLAXIS BIOSCIENCE, published 2023).
Each block holds one binder with its values, some of them ahead of it.

Tests used:
[1] = target: T1, human Siglec-8 (full-length, on cells) (human, UniProt Q9NYZ4 17-499); assay: flow cytometry, CHO cells transfected with human Siglec-8, anti-human Fc-gamma secondary, Median RL1-H
T1 construct: Used for full-length human Siglec-8 transiently expressed on CHO or 293 cells and for native Siglec-8 on primary human eosinophils
T1 sequence (Q9NYZ4 17-499): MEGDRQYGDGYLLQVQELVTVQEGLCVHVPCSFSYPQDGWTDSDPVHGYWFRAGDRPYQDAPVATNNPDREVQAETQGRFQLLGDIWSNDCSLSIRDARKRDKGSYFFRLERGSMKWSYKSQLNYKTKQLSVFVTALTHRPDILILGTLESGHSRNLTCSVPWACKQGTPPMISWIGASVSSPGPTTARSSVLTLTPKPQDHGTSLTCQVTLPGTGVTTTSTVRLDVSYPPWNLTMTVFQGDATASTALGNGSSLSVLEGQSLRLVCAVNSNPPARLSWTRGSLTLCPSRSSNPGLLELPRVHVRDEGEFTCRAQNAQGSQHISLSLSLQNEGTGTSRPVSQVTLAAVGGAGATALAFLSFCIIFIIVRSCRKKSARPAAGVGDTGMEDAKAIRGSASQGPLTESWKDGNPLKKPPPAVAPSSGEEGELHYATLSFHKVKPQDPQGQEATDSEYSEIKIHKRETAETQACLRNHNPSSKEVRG
Experimental: In additional studies, the parental llama G2 sequence was humanized and multivalent hzSiglec8-G2v14-Fc antibodies were cloned with a reduced effector function xELL human Fc. Binding of bivalent (cx11422; SEQ ID NO: 5 linked to an Fc xELL via linker 2), tetravalent (cx11580; SEQ ID NO: 9 linked to an Fc xELL via linker 2), and hexavalent (cx11579; SEQ ID NO: 10 linked to an Fc xELL via linker 2) hzSiglec8-G2v14-Fc antibodies were assessed by flow cytometry using CHO cells transfected with human Siglec-8. A titration series of the fusion proteins were incubated with the Siglec8-expressing CHO cells (5×10⁴ cells/well) for 30 minutes at 4° C. in FACS Buffer (PBS 1% BSA, 0.1% NaN3 pH 7.4) in 96 well plates. Following one 150 μL wash with FACS buffer, an APC-conjugated anti-human Fcγ specific secondary antibody (Jackson ImmunoResearch) was added, and cells were incubated for 30 minutes at 4° C. Following one additional wash in FACS buffer, bound antibodies were detected via flow cytometry (iQue Intellicyte).
The calculated affinity was similar between the bivalent, tetravalent, and hexavalent hzSiglec8-G2v14-Fc antibodies. The observed Bmax was reduced with increasing valency as anticipated, due the fact that the Fc portion of the antibody was detected in this assay and the ratio of Fc regions to anti-Siglec-8 binding domains is inverse to valency.

[2] = target: T1, human Siglec-8 (full-length, on cells); assay: flow cytometry on human eosinophils (CD16- CCR3+) from whole blood, anti-human AF647 secondary, MFI
From the text: To determine if increasing the valency of Siglec-8 antibodies could enhance agonist activity, the parental llama B12, D1 and E2 VHH sequences were used to generate tetravalent (Tet-B12 (cx8467; SEQ ID NO:50 linked to an Fc), Tet-D1 (cx8469; SEQ ID NO:56 linked to an Fc), and Tet-E2 (cx8463; SEQ ID NO:62 linked to an Fc)) and hexavalent (Hex-B12 (cx8466; SEQ ID NO:51 linked to an Fc), Hex-D1 (cx8523; SEQ ID NO:57 linked to an Fc), and Hex-E2 (cx8522; SEQ ID NO:165 linked to an Fc)), Siglec8-VHH-Fc antibodies linked to a reduced effector function xELL human Fc region via linker 2. The bivalent (Bi-B12 (cx8982), Bi-D1 (cx8983) and Bi-E2 (cx8984)), tetravalent, and hexavalent Siglec8-VHH-Fc antibodies were assessed by flow cytometry for binding to eosinophils (CD16⁻ CCR3⁺). […] Cells were spun down and then resuspended in titrated test articles starting at 200 nM 1:4 and incubated for 30 minutes at 4° C. before being washed twice and resuspended in secondary mixture (2*; anti-CCR3 FITC, anti-human AF647, PI, anti-CD16 BV605) and incubated for 30 minutes at 4° C., washed twice, and bound antibodies were detected via flow cytometry (Novocyte). […]

[3] = target: T1, human Siglec-8 (full-length, on cells); assay: flow cytometry, CHO cells transiently transfected with full-length human Siglec-8, A647 anti-human Fc-gamma secondary, Mean RL1-H
Experimental: Binding of the anti-human Siglec-8 VHHs, B12, D1, E2, and G2, as a bivalent VHH-hIgG1-xELL-Fc (VHH of SEQ ID NO: 49, 55, 61, and 1, respectively linked to an Fc xELL via linker 2, these constructs are also designated cx8982, cx8983, cx8984, and cx10382, respectively) was determined by flow cytometry using CHO cells that had been transiently transfected with full-length human Siglec-8. Binding specificity was assessed using untransfected (UT) CHO cells as a control. For the binding assays, 50,000 Siglec-8 CHOs or UT CHOs were seeded in a 96-well plate and a titration of anti-Siglec8-VHH-xELL was added in FACS Buffer (PBS 1% BSA, 0.1% NaN3 pH 7.4) incubating for 30 minutes at 4° C. After washing, the plates were incubated with an A647-conjugated anti-human Fcγ specific secondary antibody (Jackson ImmunoResearch) diluted 1:2000 in FACS buffer for 30 minutes at 4° C. The plates were washed, and binding was determined by flow cytometry quantitating anti-human A647 mean fluorescent intensity using an Intellicyt iQue Plus.

- EC50 (read off the curve) [1]: ~30 pM
B1: tetravalent hzSiglec8-G2v14-Fc antibody, Fc xELL (cx11580) (Fc fusion)
chain: EVQLLESGGGEVQPGGSLRLSCAASGSISIFSMYVVAWYRQAPGKEREWVAFIQRGGTANYAESAKGRFTISRDNAKNTVYLQMSSLRAEDTAVYYCNYINTDNEIGGPWGQGTLVTVKPGGSGGSEVQLLESGGGEVQPGGSLRLSCAASGSISIFSMYVVAWYRQAPGKEREWVAFIQRGGTANYAESAKGRFTISRDNAKNTVYLQMSSLRAEDTAVYYCNYINTDNEIGGPWGQGTLVTVKPGGGGDKTHTCPPCPAPGGPSVFLFPPKPKDTLMISRTPEVTCVVVDVSHEDPEVKFNWYVDGVEVHNAKTKPREEQYNSTYRVVSVLTVLHQDWLNGKEYKCKVSNKALPAPIEKTISKAKGQPREPQVYTLPPSRDELTKNQVSLTCLVKGFYPSDIAVEWESNGQPENNYKTTPPVLDSDGSFFLYSKLTVDKSRWQQGNVFSCSVMHEALHNHYTQKSLSLSPGK

- EC50 (read off the curve) [2]: ~50 pM
B2: anti-Siglec8-D1-xELL, bivalent VHH-hIgG1-xELL-Fc (cx8983) (Fc fusion)
chain: QVQLVESGGGLVQPGGSLRLSCAASGSIASIHGMGWYRQAPGKERELVAAIAGEGSTYYADSVKGRFTISRDFAKNTLYLQMNNLKAEDTAMYYCANNDERDDYWGQGTQVTVKPGGGGDKTHTCPPCPAPGGPSVFLFPPKPKDTLMISRTPEVTCVVVDVSHEDPEVKFNWYVDGVEVHNAKTKPREEQYNSTYRVVSVLTVLHQDWLNGKEYKCKVSNKALPAPIEKTISKAKGQPREPQVYTLPPSRDELTKNQVSLTCLVKGFYPSDIAVEWESNGQPENNYKTTPPVLDSDGSFFLYSKLTVDKSRWQQGNVFSCSVMHEALHNHYTQKSLSLSPGK
notes: also called Bi-D1

- EC50 (read off the curve) [3]: ~300 pM
B3: anti-Siglec8-E2-xELL, bivalent VHH-hIgG1-xELL-Fc (cx8984) (Fc fusion)
chain: QVQLVESGGGLVQPGGSLRLSCATSGIIFTSNVINWYRQAPGKQREFVAFITSITSGQSTMYADAVKGRFTVSRDNDKNIGYLQMTSLQPEDTARYVCNVGAYWGQGTQVTVKPGGGGDKTHTCPPCPAPGGPSVFLFPPKPKDTLMISRTPEVTCVVVDVSHEDPEVKFNWYVDGVEVHNAKTKPREEQYNSTYRVVSVLTVLHQDWLNGKEYKCKVSNKALPAPIEKTISKAKGQPREPQVYTLPPSRDELTKNQVSLTCLVKGFYPSDIAVEWESNGQPENNYKTTPPVLDSDGSFFLYSKLTVDKSRWQQGNVFSCSVMHEALHNHYTQKSLSLSPGK
notes: also called Bi-E2
